We go through one protein from PMC3728920, “In situ structural analysis of the Yersinia enterocolitica injectisome” (eLife, 2013).

This series concerns the molecule itself. The series can be described thus: cryo-EM structure; cryo-electron tomography and sub-volume averaging (~3 nm) of purified YscC (0.2 mg/ml) reconstituted into liposomes of E. coli polar lipids at 5:1 lipid-to-protein ratio; oligomers isolated beforehand in DDM by sucrose gradient, MonoQ and Superose 6 gel filtration. A general note: In gel filtration, larger molecules generally elute earlier.

B1: YscC (outer membrane secretin of the Yersinia enterocolitica injectisome) (natural protein)
chain: QELDWLPIPYVYVAKGESLRDLLTDFGANYDATVVVSDKINDKVSGQFEHDNPQDFLQHIASLYNLVWYYDGNVLYIFKNSEVASRLIRLQESEAAELKQALQRSGIWEPRFGWRPDASNRLVYVSGPPRYLELVEQTAAALEQQTQIRSEKTGALAIEIFPLKYASASDRTIHYRDDEVAAPGVATILQRVLSDATIQQVTVDNQRIPQAATRASAQARVEADPSLNAIIVRDSPERMPMYQRLIHALDKPSARIEVALSIVDINADQLTELGVDWRVGIRTGNNHQVVIKTTGDQSNIASNGALGSLVDARGLDYLLARVNLLENEGSAQVVSRPTLLTQENAQAVIDHSETYYVKVTGKEVAELKGITYGTMLRMTPRVLTQGDKSEISLNLHIEDGNQKPNSSGIEGIPTISRTVVDTVARVGHGQSLIIGGIYRDELSVALSKVPLLGDIPYIGALFRRKSELTRRTVRLFIIEPRIIDEGIAHHLALGNGQDLRTGILTVDEISNQSTTLNKLLGGSQCQPLNKAQEVQKWLSQNNKSSYLTQCKMDKSLGWRVVEGACTPAQSWCVSAPKRGVL
notes: YscC, secretin of the Ysc injectisome, Yersinia enterocolitica E40; full-length yscC with a stop codon amplified from the pYVe40 plasmid and cloned into pBAD/mycHisA (pMA6); The signal peptide is probably cut on export (surmise); The introduction cites 12-15 subunits for secretin rings; also called secretin YscC; YscC oligomers
For B1, the binding result is listed as “binds”.
